Laboratory results taken from article PMC9992711, “Two-step structural changes in M3 muscarinic receptor activation rely on the coupled Gq protein cycle” (Nature Communications, 2023).

Assays:
hM3R-Cerulean (human) [1] = target: hM3R-Cerulean (human) (UniProt P20309); assay: FRET or BRET; CFP/YFP photometry on single live HEK293T (tsA-201) cells; labelled pair co-transfected with the remaining cognate G protein subunits (GRK2 too for Gαq-CFP with Gβ1-YFP); whole-cell patch, pipette with 0.1 mM GTP; 10 μM Oxo-M applied; room temperature
hM3R-Cerulean (human) [2] = target: hM3R-Cerulean (human) (UniProt P20309); assay: FRET or BRET; CFP/YFP photometry on single live HEK293T (tsA-201) cells; labelled pair with the remaining cognate G protein subunits co-transfected (GRK2 too for Gαq-CFP with Gβ1-YFP; only the two probes for hM3R-CFP with YFP-PLCβ1); 10 μM Oxo-M applied and washed out
[3] = target: hM3R-EYFP-Cerulean (human) (UniProt P20309)
[4] = target: T1, mouse M1 muscarinic receptor (mM1R) (Mus musculus, UniProt P12657); assay: receptor FRET and RFP-PH translocation in HEK293T cells; assay type: cell-based
T1 construct: gene Chrm1; mM1R-YFP-CFP; wild-type mM1R
T1 sequence (P12657 1-460): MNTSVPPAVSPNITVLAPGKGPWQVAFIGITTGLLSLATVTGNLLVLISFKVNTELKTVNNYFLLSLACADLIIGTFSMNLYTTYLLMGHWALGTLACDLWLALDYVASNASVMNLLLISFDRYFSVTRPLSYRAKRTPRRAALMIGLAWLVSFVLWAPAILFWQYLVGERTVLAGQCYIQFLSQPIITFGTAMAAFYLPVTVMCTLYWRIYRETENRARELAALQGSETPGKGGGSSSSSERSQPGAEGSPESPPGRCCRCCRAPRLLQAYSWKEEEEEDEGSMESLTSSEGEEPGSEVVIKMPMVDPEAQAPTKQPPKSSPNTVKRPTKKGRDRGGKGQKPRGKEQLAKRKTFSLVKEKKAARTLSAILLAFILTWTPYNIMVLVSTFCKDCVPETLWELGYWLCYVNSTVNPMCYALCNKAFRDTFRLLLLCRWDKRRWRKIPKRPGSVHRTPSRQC

[5] = target: T2, human M3 muscarinic receptor (hM3R) (Homo sapiens, UniProt P20309, DEL271-484); assay: intramolecular receptor FRET in HEK293T cells, concentration-response; assay type: cell-based
T2 construct: gene CHRM3; hM3R-YFP-CFP (EYFP replaces segment between Ala270 and Lys485 in ICL3; Cerulean at C-terminus)

Sequence of heterotrimeric Gq protein (P50148 whole entry, looked up, one chain of several): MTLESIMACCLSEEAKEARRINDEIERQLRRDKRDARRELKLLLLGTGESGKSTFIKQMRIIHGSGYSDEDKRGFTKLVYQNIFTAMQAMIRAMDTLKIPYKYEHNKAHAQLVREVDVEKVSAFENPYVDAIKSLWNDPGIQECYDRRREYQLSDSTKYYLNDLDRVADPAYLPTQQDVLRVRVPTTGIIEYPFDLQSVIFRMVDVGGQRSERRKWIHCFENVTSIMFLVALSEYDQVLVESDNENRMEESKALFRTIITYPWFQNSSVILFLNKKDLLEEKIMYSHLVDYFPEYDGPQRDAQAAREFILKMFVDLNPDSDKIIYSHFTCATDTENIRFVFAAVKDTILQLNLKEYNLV

Gβγ subunits (bovine Gβ1-EYFP with Gγ2) (from UniProt P62871 1-340; P59768 1-71) (complex; other documents disagree on this pair)
time constant τ of the FRETr increase on Oxo-M (hM3R-Cerulean (human) [1]): 0.23 s
deactivation time constant τ of FRETr after Oxo-M washout (hM3R-Cerulean (human) [2]): 0.53 s

heterotrimeric Gq protein (from UniProt P50148 1-359) (complex)
intramolecular FRETr of hM3R-YFP-CFP, time constant τ of step 1 on Oxo-M, intact HEK293T cells [3]: 0.22 s

C[N+](C)(C)CC#CCN1CCCC1=O [Oxo-M, oxotremorine-M]
receptor FRET and RFP-PH translocation in HEK293T cells [4]: wild-type mM1R or hM3R plasmid showed a strong translocation of RFP-PH from the plasma membrane to cytosol by Oxo-M
EC50 [5]: 112 nM
